Reference: IntAct's records for PubMed 23892082

B1: TIP41-like protein (Homo sapiens), O75663 (parent)
chain: MMIHGFQSSHRDFCFGPWKLTASKTHIMKSADVEKLADELHMPSLPEMMFGDNVLRIQHGSGFGIEFNATDALRCVNNYQGMLKVACAEEWQESRTEGEHSKEVIKPYDWTYTTDYKGTLLGESLKLKVVPTTDHIDTEKLKAREQIKFFEEVLLFEDELHDHGVSSLSVKIRVMPSSFFLLLRFFLRIDGVLIRMNDTRLYHEADKTYMLREYTSRESKISSLMHVPPSLFTEPNEISQYLPIKEAVCEKLIFPERIDPNPADSQKSTQVE

Variants of: B1
Settings: with pp2aa_rat Ppp2ca

Row | Variant | effect of a mutation on the interaction
1 | MMIHGFQSSHRDFCFGPWKLTASKTHIMKSADVEKLADELHMPSLPEMMFGDNVLRIQHGSGFGIEFNATLALRCVNNYQGMLKVACAEEWQESRTEGEHSKEVIKPYDWTYTTDYKGTLLGESLKLKVVPTTDHIDTEKLKAREQIKFFEEVLLFEDELHDHGVSSLSVKIRVMPSSFFLLLRFFLRIDGVLIRMNDTRLYHEADKTYMLREYTSRESKISSLMHVPPSLFTEPNEISQYLPIKEAVCEKLIFPERIDPNPADSQKSTQVE [D71L] | disrupting interaction
